# Source: the RNAGym collection of RNA variant scans (doi:10.7554/elife.90254)
# B1: LINE1-mini (parent)
# chain: GGCAGAGCUCAACACAGCGUGGCAAAGUGGCUGUGGCUAGACUGCC
# Variants of: B1
# Experiment: self-cleavage, relative activity (ratio to wild type); higher = more cleavage; in vitro, sequencing; the parent is a self-cleaving ribozyme
row,Variant,self-cleavage
1,GGCAGAGCUCAACACAGCGUAGCAAAGUGGCUGUGGCUAGACUGCC [G21A],2.19
2,CGCAGAGCUCAACACAGCGUGGCAAAGUGGCUGGGGCUAGACUGCC [G1C U34G],0.02
3,GGCAGAGCUCAACACAGCCUGGCAAAGUGGCUGUGGAUAGACUGCC [G19C C37A],0.04
4,GGCAGAGCUCAACACAGCGUGGCAAAGUGGCUGUGGCCAGACGGCC [U38C U43G],0.07
5,GGCGGAGCCCAACACAGCGUGGCAAAGUGGCUGUGGCUAGACUGCC [A4G U9C],0.02
6,GGCAGAGCUCAACACAGCGUGGCAAAGAGGCUGUGGCUAGACUGGC [U28A C45G],0.24
7,GGCAGAGCUCAACACAGCGUGGCAAAGUGACUGUGGCUAGACUGCU [G30A C46U],1.33
8,GGCAGUGCUCAACACAGCGUGGCAAAGUGGCUGUGGUUAGACUGCC [A6U C37U],0.07
9,GGCAGAGCUCAACACAGCGUGGCAAAGUGCCUGUGGCUAGACCGCC [G30C U43C],0.25
10,GGCAGAGCUCAACACAGCGUGGCAAUGUGGCUGUGGCUAGACUGGC [A26U C45G],0.64
11,GGCAGAGCUCAACACAGCGUGGUAAAGUGGCUGUGCCUAGACUGCC [C23U G36C],0.07
12,GGCAGAGCUCAAAACAGCGUGGCAAAGAGGCUGUGGCUAGACUGCC [C13A U28A],0.07
13,GGCAGAGCUCAACACAGCGUGGCAAAUUGGCUGUGGCUAGACUGCG [G27U C46G],0.76
14,GGCAUAGCUCAACACAGCGAGGCAAAGUGGCUGUGGCUAGACUGCC [G5U U20A],0.06
15,GGCAGAGCUCUACACAGCGUGGCAAAGUGGCUGUGGCUAUACUGCC [A11U G40U],0.04
16,GGCAGAGCUCAACACAGCGUUGCAAAGUGGAUGUGGCUAGACUGCC [G21U C31A],0.19
17,GGCAGAGCUCAACACAGCUUGGCAAAGUGGAUGUGGCUAGACUGCC [G19U C31A],0.37
18,GGCAGAGCUCAACACAGCUUGGCAAAGUGGUUGUGGCUAGACUGCC [G19U C31U],0.44
19,GGCAGAGCUCUACACAGCGUGGCAAAGUGGCUGUUGCUAGACUGCC [A11U G35U],0.02

row,Variant,self-cleavage
1,GGCAGGGCUCAACACAGCGUGGCAAAGUGGCUGUGGCUACACUGCC [A6G G40C],0.05
2,GGCAGAUCUCAAGACAGCGUGGCAAAGUGGCUGUGGCUAGACUGCC [G7U C13G],0.08
3,GGCAGAGCUCAGCACCGCGUGGCAAAGUGGCUGUGGCUAGACUGCC [A12G A16C],0.06
4,GGCAGAGCUCAACACAACGUGGCAUAGUGGCUGUGGCUAGACUGCC [G17A A25U],0.24
5,GGCAGAGCUCAACACAGCGUGGCAACAUGGCUGUGGCUAGACUGCC [A26C G27A],0.57
6,GGCAGAGCUCAACACAGCGUGCCAAAGUGGCUGUGGAUAGACUGCC [G22C C37A],0.09
7,GGCAGAGCUCAACACCGCGUGGCAAAGUGGCUGUGGCAAGACUGCC [A16C U38A],0.13
8,GGCAGAGCUCAACACAGCGUGGCAAACUGGCUGUGUCUAGACUGCC [G27C G36U],0.05
9,GUCGGAGCUCAACACAGCGUGGCAAAGUGGCUGUGGCUAGACUGCC [G2U A4G],0.12
10,GGCAGAGCUCAACACAGCGUUGCAAAGUAGCUGUGGCUAGACUGCC [G21U G29A],0.63
11,GGCAGAGCUCAGCAAAGCGUGGCAAAGUGGCUGUGGCUAGACUGCC [A12G C15A],0.02
12,GGCAGAGCUCAACACAGCGGGGCAAAGUGGCUGUGGCUUGACUGCC [U20G A39U],0.56
13,CGCAGAGCUCAACAAAGCGUGGCAAAGUGGCUGUGGCUAGACUGCC [G1C C15A],0.02
14,GGCAGAGCUCAAAAUAGCGUGGCAAAGUGGCUGUGGCUAGACUGCC [C13A C15U],0.12
15,GGCAGAGCUAAACACAGCGUGGCAAAUUGGCUGUGGCUAGACUGCC [C10A G27U],0.06
16,GGCAGAGCUCAACACAGCGUGGCAAAUUGGCUGUGGCUAGACUGGC [G27U C45G],0.37
17,GGCAGGGCUCAACACAGCGUGGCAAAGUGGCUGAGGCUAGACUGCC [A6G U34A],0.04
18,GGCAGAUCUCAACACAGCGCGGCAAAGUGGCUGUGGCUAGACUGCC [G7U U20C],0.07
19,GGUAGAGCUCAACACAGCGUGGCAAAGCGGCUGUGGCUAGACUGCC [C3U U28C],0.24

row,Variant,self-cleavage
1,GGCAGAGCUCAACACCGCGUGGCAAAGUGGCUGUGCCUAGACUGCC [A16C G36C],0.04
2,GGCAGAGCUCAACACAGCGAGGCAAAGUGGCUGUUGCUAGACUGCC [U20A G35U],0.08
3,AGCAGAGCUCAACACAGCGUGGCAAAGUGGCAGUGGCUAGACUGCC [G1A U32A],0.09
4,GCCAGAGCUCAACACAGCGUGGCAAAGUGGCUGUGGCAAGACUGCC [G2C U38A],0.06
5,GGCAGAGCUCAACACAGCGUGGCAAAGUGGCUGUGUCUAGACUGCU [G36U C46U],0.1
6,GGCAGAGCUCAACACAGUGUGGCAAAGUGGCUGUGGCUAGACUGAC [C18U C45A],0.79
7,GGCAGAGCUCAACACAGCGUGGUAAAGUGGCUGUGGCUAGCCUGCC [C23U A41C],0.06
8,GGCAGAGCUCAACACAGAGUGGCAAUGUGGCUGUGGCUAGACUGCC [C18A A26U],0.69
9,GGCAGAGCUCAACACAGCGCGGCAAAGUGGCUGUGCCUAGACUGCC [U20C G36C],0.07
10,GGCGGAGCUCAACACAGCGUGGCAAAGUGGCUGUGGCUAGACUACC [A4G G44A],0.48
11,GGCAGAGCUCAACACAGCGCGGCAAAGUGGCUGUGGCUAGUCUGCC [U20C A41U],0.46
12,GGCAGAGCUCACCACAGCGUGGCUAAGUGGCUGUGGCUAGACUGCC [A12C A24U],0.03
13,GGCAGAGCUCAACACAGCGUUGCAAAGUGGCUGUGGCUAGACUGUC [G21U C45U],1.62
14,GGCAGAGCUCACCACAGGGUGGCAAAGUGGCUGUGGCUAGACUGCC [A12C C18G],0.02
15,GGCCGAGCUAAACACAGCGUGGCAAAGUGGCUGUGGCUAGACUGCC [A4C C10A],0.04
16,GGCAGAGCUCAACACAGCGUGGCUAAGUGGCUGUGGCUAGUCUGCC [A24U A41U],0.61
17,GGCAGAGCUCAACACAGUGUGGCAAAGUGGCAGUGGCUAGACUGCC [C18U U32A],0.04
18,GGCAGAGCUCAACAGAGCGUGGCAAAGUGACUGUGGCUAGACUGCC [C15G G30A],0.07
